Target: mixture of three Der p 2 specific recombinant human IgE clones H10, H12, P4E (human) (UniProt P01854)
Assay: RBL-SX38 IgE displacement, FACS

mixture of three Der p 2 specific recombinant human IgE clones H10, H12, P4E (human), sequence (P01854 other isoform, or with tags, fused parts or gaps): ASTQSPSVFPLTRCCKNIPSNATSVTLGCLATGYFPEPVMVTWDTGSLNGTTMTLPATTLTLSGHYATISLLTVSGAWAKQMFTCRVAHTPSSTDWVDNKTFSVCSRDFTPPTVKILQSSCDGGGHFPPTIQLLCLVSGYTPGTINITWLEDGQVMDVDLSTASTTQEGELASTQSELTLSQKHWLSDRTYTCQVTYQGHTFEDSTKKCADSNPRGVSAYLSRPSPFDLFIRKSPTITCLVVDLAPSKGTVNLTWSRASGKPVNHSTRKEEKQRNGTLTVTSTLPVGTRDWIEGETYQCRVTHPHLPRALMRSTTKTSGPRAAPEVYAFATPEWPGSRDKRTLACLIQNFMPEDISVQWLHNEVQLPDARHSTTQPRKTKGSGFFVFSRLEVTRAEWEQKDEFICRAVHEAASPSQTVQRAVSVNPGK

| Binder | EC50 [nM] | Max effect/effect 1 µM [%] |
| --- | --- | --- |
| NIgG4F2A1(G4S)1 (Fc fusion) chain 1: DVQLQESGGGLVQAGGSLKLSCAASGGSLSRYDMGWFRQAPGKEREFVARISWSGDTKYYADAVEGRFAISRDNAQNTVYLQMNSLKPEDTAVYYCAVALYGNRGYYDVNTYSYWGQGTRVTVSGGGGSGPPCPPCPAPEFLGGPSVFLFPPKPKDTLMISRTPEVTCVVVDVSQEDPEVQFNWYVDGVEVHNAKTKPREEQFNSTYRVVSVLTVLHQDWLNGKEYKCKVSNKGLPSSIEKTISKAKGQPREPQVYTLPPCQEEMTKNQVSLWCLVKGFYPSDIAVEWESNGQPENNYKTTPPVLDSDGSFFLYSRLTVDKSRWQEGNVFSCSVMHEALHNHYTQKSLSLSLGK chain 2: EVQLLESGGGLVQPGGSLRLSCAASGFTFGNYDMAWVRQAPGKRPEWVSSIDTGGDITHYADSVKGRFTISRDNAKNTLYLQMNSLRPEDTAVYWCATDEEYALGPNEFDYYGQGTLVTVSSGGGGSGPPCPPCPAPEFLGGPSVFLFPPKPKDTLMISRTPEVTCVVVDVSQEDPEVQFNWYVDGVEVHNAKTKPREEQFNSTYRVVSVLTVLHQDWLNGKEYKCKVSNKGLPSSIEKTISKAKGQPREPQVCTLPPSQEEMTKNQVSLSCAVKGFYPSDIAVEWESNGQPENNYKTTPPVLDSDGSFFLVSRLTVDKSRWQEGNVFSCSVMHEALHNHYTQKSLSLSLGK | 2 | 92 |
| CIgG4F1A1(G4S)1 (Fc fusion) chain 1: GPPCPPCPAPEFLGGPSVFLFPPKPKDTLMISRTPEVTCVVVDVSQEDPEVQFNWYVDGVEVHNAKTKPREEQFNSTYRVVSVLTVLHQDWLNGKEYKCKVSNKGLPSSIEKTISKAKGQPREPQVYTLPPCQEEMTKNQVSLWCLVKGFYPSDIAVEWESNGQPENNYKTTPPVLDSDGSFFLYSRLTVDKSRWQEGNVFSCSVMHEALHNHYTQKSLSLSLGKGGGGSDVQLQESGGGLVQAGGSLKLSCAASGGSLSRYDMGWFRQAPGKEREFVARISWSGTTKYYADAVKGRFAISRDNAKNTVYLQMNSLKPEDTAVYYCAAAFYGNRGYYDVNAYTSSGQGTQVTVS chain 2: GPPCPPCPAPEFLGGPSVFLFPPKPKDTLMISRTPEVTCVVVDVSQEDPEVQFNWYVDGVEVHNAKTKPREEQFNSTYRVVSVLTVLHQDWLNGKEYKCKVSNKGLPSSIEKTISKAKGQPREPQVCTLPPSQEEMTKNQVSLSCAVKGFYPSDIAVEWESNGQPENNYKTTPPVLDSDGSFFLVSRLTVDKSRWQEGNVFSCSVMHEALHNHYTQKSLSLSLGKGGGGSEVQLLESGGGLVQPGGSLRLSCAASGFTFGNYDMAWVRQAPGKRPEWVSSIDTGGDITHYADSVKGRFTISRDNAKNTLYLQMNSLRPEDTAVYWCATDEEYALGPNEFDYYGQGTLVTVSS |  | 8 |
| CIgG4F1A1(G4S)2 (Fc fusion) chain 1: GPPCPPCPAPEFLGGPSVFLFPPKPKDTLMISRTPEVTCVVVDVSQEDPEVQFNWYVDGVEVHNAKTKPREEQFNSTYRVVSVLTVLHQDWLNGKEYKCKVSNKGLPSSIEKTISKAKGQPREPQVYTLPPCQEEMTKNQVSLWCLVKGFYPSDIAVEWESNGQPENNYKTTPPVLDSDGSFFLYSRLTVDKSRWQEGNVFSCSVMHEALHNHYTQKSLSLSLGKGGGGSGGGGSDVQLQESGGGLVQAGGSLKLSCAASGGSLSRYDMGWFRQAPGKEREFVARISWSGTTKYYADAVKGRFAISRDNAKNTVYLQMNSLKPEDTAVYYCAAAFYGNRGYYDVNAYTSSGQGTQVTVS chain 2: GPPCPPCPAPEFLGGPSVFLFPPKPKDTLMISRTPEVTCVVVDVSQEDPEVQFNWYVDGVEVHNAKTKPREEQFNSTYRVVSVLTVLHQDWLNGKEYKCKVSNKGLPSSIEKTISKAKGQPREPQVCTLPPSQEEMTKNQVSLSCAVKGFYPSDIAVEWESNGQPENNYKTTPPVLDSDGSFFLVSRLTVDKSRWQEGNVFSCSVMHEALHNHYTQKSLSLSLGKGGGGSGGGGSEVQLLESGGGLVQPGGSLRLSCAASGFTFGNYDMAWVRQAPGKRPEWVSSIDTGGDITHYADSVKGRFTISRDNAKNTLYLQMNSLRPEDTAVYWCATDEEYALGPNEFDYYGQGTLVTVSS |  | 18 |
| CIgG4F1A1(G4S)3 (Fc fusion) chain 1: GPPCPPCPAPEFLGGPSVFLFPPKPKDTLMISRTPEVTCVVVDVSQEDPEVQFNWYVDGVEVHNAKTKPREEQFNSTYRVVSVLTVLHQDWLNGKEYKCKVSNKGLPSSIEKTISKAKGQPREPQVYTLPPCQEEMTKNQVSLWCLVKGFYPSDIAVEWESNGQPENNYKTTPPVLDSDGSFFLYSRLTVDKSRWQEGNVFSCSVMHEALHNHYTQKSLSLSLGKGGGGSGGGGSGGGGSDVQLQESGGGLVQAGGSLKLSCAASGGSLSRYDMGWFRQAPGKEREFVARISWSGTTKYYADAVKGRFAISRDNAKNTVYLQMNSLKPEDTAVYYCAAAFYGNRGYYDVNAYTSSGQGTQVTVS chain 2: GPPCPPCPAPEFLGGPSVFLFPPKPKDTLMISRTPEVTCVVVDVSQEDPEVQFNWYVDGVEVHNAKTKPREEQFNSTYRVVSVLTVLHQDWLNGKEYKCKVSNKGLPSSIEKTISKAKGQPREPQVCTLPPSQEEMTKNQVSLSCAVKGFYPSDIAVEWESNGQPENNYKTTPPVLDSDGSFFLVSRLTVDKSRWQEGNVFSCSVMHEALHNHYTQKSLSLSLGKGGGGSGGGGSGGGGSEVQLLESGGGLVQPGGSLRLSCAASGFTFGNYDMAWVRQAPGKRPEWVSSIDTGGDITHYADSVKGRFTISRDNAKNTLYLQMNSLRPEDTAVYWCATDEEYALGPNEFDYYGQGTLVTVSS |  | 0 |

Further lines, results first:

| EC50 [nM] | Max effect/effect 1 µM [%] | Binder |
| --- | --- | --- |
| 2 | 88 | NIgG4F2A1(RS) (Fc fusion) chain 1: DVQLQESGGGLVQAGGSLKLSCAASGGSLSRYDMGWFRQAPGKEREFVARISWSGDTKYYADAVEGRFAISRDNAQNTVYLQMNSLKPEDTAVYYCAVALYGNRGYYDVNTYSYWGQGTRVTVSRSGPPCPPCPAPEFLGGPSVFLFPPKPKDTLMISRTPEVTCVVVDVSQEDPEVQFNWYVDGVEVHNAKTKPREEQFNSTYRVVSVLTVLHQDWLNGKEYKCKVSNKGLPSSIEKTISKAKGQPREPQVYTLPPCQEEMTKNQVSLWCLVKGFYPSDIAVEWESNGQPENNYKTTPPVLDSDGSFFLYSRLTVDKSRWQEGNVFSCSVMHEALHNHYTQKSLSLSLGK chain 2: EVQLLESGGGLVQPGGSLRLSCAASGFTFGNYDMAWVRQAPGKRPEWVSSIDTGGDITHYADSVKGRFTISRDNAKNTLYLQMNSLRPEDTAVYWCATDEEYALGPNEFDYYGQGTLVTVSSRSGPPCPPCPAPEFLGGPSVFLFPPKPKDTLMISRTPEVTCVVVDVSQEDPEVQFNWYVDGVEVHNAKTKPREEQFNSTYRVVSVLTVLHQDWLNGKEYKCKVSNKGLPSSIEKTISKAKGQPREPQVCTLPPSQEEMTKNQVSLSCAVKGFYPSDIAVEWESNGQPENNYKTTPPVLDSDGSFFLVSRLTVDKSRWQEGNVFSCSVMHEALHNHYTQKSLSLSLGK |
| 2 | 94 | NIgG4F2A1(G4S)2 (Fc fusion) chain 1: DVQLQESGGGLVQAGGSLKLSCAASGGSLSRYDMGWFRQAPGKEREFVARISWSGDTKYYADAVEGRFAISRDNAQNTVYLQMNSLKPEDTAVYYCAVALYGNRGYYDVNTYSYWGQGTRVTVSGGGGSGGGGSGPPCPPCPAPEFLGGPSVFLFPPKPKDTLMISRTPEVTCVVVDVSQEDPEVQFNWYVDGVEVHNAKTKPREEQFNSTYRVVSVLTVLHQDWLNGKEYKCKVSNKGLPSSIEKTISKAKGQPREPQVYTLPPCQEEMTKNQVSLWCLVKGFYPSDIAVEWESNGQPENNYKTTPPVLDSDGSFFLYSRLTVDKSRWQEGNVFSCSVMHEALHNHYTQKSLSLSLGK chain 2: EVQLLESGGGLVQPGGSLRLSCAASGFTFGNYDMAWVRQAPGKRPEWVSSIDTGGDITHYADSVKGRFTISRDNAKNTLYLQMNSLRPEDTAVYWCATDEEYALGPNEFDYYGQGTLVTVSSGGGGSGGGGSGPPCPPCPAPEFLGGPSVFLFPPKPKDTLMISRTPEVTCVVVDVSQEDPEVQFNWYVDGVEVHNAKTKPREEQFNSTYRVVSVLTVLHQDWLNGKEYKCKVSNKGLPSSIEKTISKAKGQPREPQVCTLPPSQEEMTKNQVSLSCAVKGFYPSDIAVEWESNGQPENNYKTTPPVLDSDGSFFLVSRLTVDKSRWQEGNVFSCSVMHEALHNHYTQKSLSLSLGK |

Source: patent US20250171562A1
